From patent US20180362645A1 (Amgen, published 2018)

T1: human pituitary adenylate cyclase-activating polypeptide type I receptor (human, UniProt P41586 21-468)
T1 construct: whole, on cells; On SH-SY5Y or recombinant CHO cells (cAMP assay), as membranes of hPAC-1 AequoScreen CHO cells (radioligand assay) and on CHOK1/huPac1 whole cells (KinExA); also called human PAC1; hPAC1
T1 sequence (looked up): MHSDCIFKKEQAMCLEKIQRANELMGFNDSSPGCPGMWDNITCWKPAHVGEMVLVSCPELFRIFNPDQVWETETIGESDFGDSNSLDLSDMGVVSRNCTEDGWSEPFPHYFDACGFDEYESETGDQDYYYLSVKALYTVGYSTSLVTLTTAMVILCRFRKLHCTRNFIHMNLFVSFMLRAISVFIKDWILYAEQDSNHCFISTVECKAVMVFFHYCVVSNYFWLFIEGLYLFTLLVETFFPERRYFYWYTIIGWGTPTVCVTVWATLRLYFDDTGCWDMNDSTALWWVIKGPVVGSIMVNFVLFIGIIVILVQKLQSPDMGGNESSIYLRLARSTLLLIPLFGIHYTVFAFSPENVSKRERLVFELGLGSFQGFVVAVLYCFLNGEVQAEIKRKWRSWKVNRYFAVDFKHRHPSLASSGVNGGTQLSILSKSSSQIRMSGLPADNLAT

T2: human VPAC2 (human, UniProt P41587 24-438)
T2 sequence (looked up): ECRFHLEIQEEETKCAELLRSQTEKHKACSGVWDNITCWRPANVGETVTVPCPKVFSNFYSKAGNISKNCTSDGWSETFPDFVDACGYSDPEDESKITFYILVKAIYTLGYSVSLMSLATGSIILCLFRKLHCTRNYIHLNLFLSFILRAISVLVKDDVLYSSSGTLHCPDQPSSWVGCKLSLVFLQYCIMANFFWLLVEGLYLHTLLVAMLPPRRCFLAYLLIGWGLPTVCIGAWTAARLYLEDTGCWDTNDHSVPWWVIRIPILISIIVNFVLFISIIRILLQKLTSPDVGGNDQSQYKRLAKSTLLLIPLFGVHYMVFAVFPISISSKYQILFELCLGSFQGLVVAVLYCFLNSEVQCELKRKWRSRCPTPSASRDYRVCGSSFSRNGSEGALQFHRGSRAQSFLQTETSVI

T3: human VPAC1 (human, UniProt P32241 31-457)
T3 sequence (looked up): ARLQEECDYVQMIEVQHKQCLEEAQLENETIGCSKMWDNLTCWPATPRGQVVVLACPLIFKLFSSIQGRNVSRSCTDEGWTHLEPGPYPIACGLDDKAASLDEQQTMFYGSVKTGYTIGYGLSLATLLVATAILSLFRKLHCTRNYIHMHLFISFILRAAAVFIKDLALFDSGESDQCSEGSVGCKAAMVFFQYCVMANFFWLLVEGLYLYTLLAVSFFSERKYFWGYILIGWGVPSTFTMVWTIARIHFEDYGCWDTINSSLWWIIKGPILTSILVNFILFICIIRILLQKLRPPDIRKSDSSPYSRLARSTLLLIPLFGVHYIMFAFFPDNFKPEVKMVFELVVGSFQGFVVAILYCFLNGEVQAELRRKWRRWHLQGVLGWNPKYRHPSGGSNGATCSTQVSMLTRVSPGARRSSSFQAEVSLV

T4: rat PAC1 (rat, UniProt P32215 20-523)
T4 sequence (looked up): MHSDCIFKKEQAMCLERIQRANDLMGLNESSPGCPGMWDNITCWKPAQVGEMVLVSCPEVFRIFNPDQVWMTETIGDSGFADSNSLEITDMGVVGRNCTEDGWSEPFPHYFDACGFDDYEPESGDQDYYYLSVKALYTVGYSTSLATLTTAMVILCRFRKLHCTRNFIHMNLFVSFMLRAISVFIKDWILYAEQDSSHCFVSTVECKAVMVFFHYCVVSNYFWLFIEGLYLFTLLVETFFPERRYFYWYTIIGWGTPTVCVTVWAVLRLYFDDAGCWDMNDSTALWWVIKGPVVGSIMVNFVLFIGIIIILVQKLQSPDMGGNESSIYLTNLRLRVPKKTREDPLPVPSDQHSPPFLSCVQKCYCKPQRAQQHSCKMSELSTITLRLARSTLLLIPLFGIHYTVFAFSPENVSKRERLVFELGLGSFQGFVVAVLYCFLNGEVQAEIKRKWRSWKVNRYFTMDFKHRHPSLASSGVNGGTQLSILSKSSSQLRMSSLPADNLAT

B1: 29B (antibody, human IgG1, kappa, N297G)
heavy: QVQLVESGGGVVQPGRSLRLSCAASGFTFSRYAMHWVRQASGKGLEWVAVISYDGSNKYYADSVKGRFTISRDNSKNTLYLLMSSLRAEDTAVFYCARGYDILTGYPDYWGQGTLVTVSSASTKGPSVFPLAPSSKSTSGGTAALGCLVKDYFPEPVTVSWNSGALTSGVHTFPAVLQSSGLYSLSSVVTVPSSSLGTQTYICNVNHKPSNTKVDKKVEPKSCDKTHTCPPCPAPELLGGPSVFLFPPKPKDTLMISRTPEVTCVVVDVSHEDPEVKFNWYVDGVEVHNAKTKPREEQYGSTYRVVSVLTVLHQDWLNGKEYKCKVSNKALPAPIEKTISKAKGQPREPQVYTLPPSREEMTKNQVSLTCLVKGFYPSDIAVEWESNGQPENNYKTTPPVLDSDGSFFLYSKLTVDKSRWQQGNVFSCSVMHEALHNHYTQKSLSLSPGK
light: DIQLTQSPSFLSASVGDRVTITCRASQSIGRSLHWYQQKPGKAPKLLFKYASQSLSGVPSRFSGSGSGTEFTLTISSLQPEDFATYYCHQSSRLPFTFGPGTKVDIKRTVAAPSVFIFPPSDEQLKSGTASVVCLLNNFYPREAKVQWKVDNALQSGNSQESVTEQDSKDSTYSLSSTLTLSKADYEKHKVYACEVTHQGLSSPVTKSFNRGEC
notes: "B" suffix: aglycosylated IgG1 variant (N297G); also called LC-11 and HC-40

Tests used:
[1] = target: T1, human pituitary adenylate …; experiment: radioligand competition, hPAC1 CHO membranes; competitor 125I-26B
Procedure: (§1) The plates were incubated at room temperature for 2 hours with shaking at 60 rpm, and then the contents of each well were filtered over 0.5% polyethyleneimine (PEI)-treated (for at least two hours) GF/C 96-well filter plates. The GF/C filter plates were washed five times with ice-cold 50 mM Tris, pH 7.5 and dried in an oven at 55° C. for 1 hour. The bottoms of the GF/C plates were then sealed. 40 μl Microscint™ 20 was added to each well, the tops of the GF/C plates were sealed with TopSeal™-A (a press-on adhesive sealing film), and the GF/C plates were counted with TopCount NXT (Packard). The data were analyzed using Prizm (GraphPad Software Inc.)

[2] = target: T1, human pituitary adenylate …; experiment: radioligand competition, hPAC1 CHO membranes; competitor 125I-39B
Procedure: as §1

[3] = target: T1, human pituitary adenylate …; experiment: radioligand competition, hPAC1 CHO membranes; competitor 125I-01B
Procedure: as §1

[4] = target: T1, human pituitary adenylate …; experiment: KinExA, CHOK1/huPac1 whole cells
Procedure: Binding of anti-Pac1 antibody with CHOK1/huPac1 cells were tested on KinExA. […] Samples containing anti-Pac1 antibody and whole cells were incubated with rotation at room temperature for 4 hours before 5-minute 220-g centrifugation at 4° C. to separate the whole cells and anti-Pac1 antibody-cell complexes from unbound anti-Pac1 antibody. The supernatants containing free anti-Pac1 antibody were filtered through 0.22 μm filter before loading to the goat-anti-huFc-coated beads on KinExA. […] The binding signal is proportional to the concentration of free anti-Pac1 antibody in solution at each cell density. Equilibrium dissociation constant (KD) was estimated by n-curve analysis in KinExA™ Pro software (Sapidyne Instruments, Inc., Boise, Id.).

human VPAC2 = target: T2, human VPAC2; experiment: cell-based or functional assay
human VPAC1 = target: T3, human VPAC1; experiment: cell-based or functional assay
rat PAC1 = target: T4, rat PAC1; experiment: cell-based or functional assay
cyno PAC1 = cyno PAC1 (cynomolgus); experiment: cell-based or functional assay
[5] = target: T1, human pituitary adenylate …; experiment: cell-based or functional assay
[6] = target: T1, human pituitary adenylate …; experiment: radioligand competition, hPAC1 CHO membranes; competitor 125I-29B
Procedure: as §1

[7] = target: T1, human pituitary adenylate …; experiment: radioligand competition, hPAC1 CHO membranes; competitor 125I-14B
Procedure: as §1

[8] = target: T1, human pituitary adenylate …; experiment: radioligand competition, hPAC1 CHO membranes; competitor 125I-28A
Procedure: as §1

[9] = target: T1, human pituitary adenylate …; experiment: radioligand competition, hPAC1 CHO membranes; competitor 125I-01B; 125I-01B as tracer
Procedure: as §1

[10] = target: T1, human pituitary adenylate …; experiment: radioligand competition, hPAC1 CHO membranes; competitor 125I-26A
Procedure: as §1

[11] = target: T1, human pituitary adenylate …; experiment: radioligand competition, hPAC1 CHO membranes; competitor 125I-29A
Procedure: as §1

[12] = target: T1, human pituitary adenylate …; experiment: radioligand competition, hPAC1 CHO membranes; competitor 125I-14A
Procedure: as §1

[13] = target: T1, human pituitary adenylate …; experiment: radioligand competition, hPAC1 CHO membranes; competitor 125I-39A
Procedure: as §1

Row | Binder | Ki [1] | Ki [2] | Ki [3] | Kd [4] | hVPAC2 IC50 (cAMP assay) (human VPAC2) | hVPAC1 IC50 (cAMP assay) (human VPAC1) | rat PAC1 IC50 (cAMP assay) (rat PAC1) | cyno PAC1 IC50 (cAMP assay) (cyno PAC1) | hPAC1 IC50 (cAMP assay) [5] | Ki [6] | Ki [7] | Ki [8] | Ki [9] | Ki [10] | Ki [11] | Ki [12] | Ki [13]
1 | B1 | 0.07 nM | 0.05 nM | 0.14 nM | 0.015 nM | > 10000 nM | > 10000 nM | 50.7 nM | 0.5 nM | 0.9 nM | 0.08 nM | 0.08 nM |  |  |  |  |  | 
2 | FTDSYSRYRKQMAVKKYLAAVLGKRYKQRVKNK (peptide, UniProt P18509 137-169, looked up, domain: PACAP 6-38) [PACAP 6-38] | 6.26 nM | 4.91 nM |  |  |  |  |  |  |  | 2.39 nM | 7.74 nM | 2.06 nM | 4.98 nM | 2.51 nM | 4.05 nM | 4.08 nM | 2.78 nM
